± gives the standard deviation of the averaged measurements.
Columns and labels:
MCF7 = assay: percentage of EdU-negative (G0-arrested) nuclei per well, 72 h; higher = more G0 arrest; conditions: reference: sequence is the full UniProt precursor, the tested protein was the secreted form or ectodomain
hTERT-HMEC = assay: as above; conditions: reference: sequence is the full UniProt precursor, the tested protein was the secreted form or ectodomain
[1] = protein concentration 0.0225 µM
[2] = protein concentration 0.02025 µM
[3] = protein concentration 0.2025 µM
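Also: secreted proteins added to cultured cells, EdU pulse at the end, nuclei found by Hoechst imaging, EdU status from nuclear versus surrounding ring intensity ratio, PBS as neutral control.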

MKPAAREARLPPRSPGLRWALPLLLLLLRLGQILCAGGTPSPIPDPSVATVATGENGITQISSTAESFHKQNGTGTPQVETNTSEDGESSGANDSLRTPEQGSNGTDGASQKTPSSTGPSPVFDIKAVSISPTNVILTWKSNDTAASEYKYVVKHKMENEKTITVVHQPWCNITGLRPATSYVFSITPGIGNETWGDPRVIKVITEPIPVSDLRVALTGVRKAALSWSNGNGTASCRVLLESIGSHEELTQDSRLQVNISGLKPGVQYNINPYLLQSNKTKGDPLGTEGGLDASNTERSRAGSPTAPVHDESLVGPVDPSSGQQSRDTEVLLVGLEPGTRYNATVYSQAANGTEGQPQAIEFRTNAIQVFDVTAVNISATSLTLIWKVSDNESSSNYTYKIHVAGETDSSNLNVSEPRAVIPGLRSSTFYNITVCPVLGDIEGTPGFLQVHTPPVPVSDFRVTVVSTTEIGLAWSSHDAESFQMHITQEGAGNSRVEITTNQSIIIGGLFPGTKYCFEIVPKGPNGTEGASRTVCNRTVPSAVFDIHVVYVTTTEMWLDWKSPDGASEYVYHLVIESKHGSNHTSTYDKAITLQGLIPGTLYNITISPEVDHVWGDPNSTAQYTRPSNVSNIDVSTNTTAATLSWQNFDDASPTYSYCLLIEKAGNSSNATQVVTDIGITDATVTELIPGSSYTVEIFAQVGDGIKSLEPGRKSFCTDPASMASFDCEVVPKEPALVLKWTCPPGANAGFELEVSSGAWNNATHLESCSSENGTEYRTEVTYLNFSTSYNISITTVSCGKMAAPTRNTCTTGITDPPPPDGSPNITSVSHNSVKVKFSGFEASHGPIKAYAVILTTGEAGHPSADVLKYTYEDFKKGASDTYVTYLIRTEEKGRSQSLSEVLKYEIDVGNESTTLGYYNGKLEPLGSYRACVAGFTNITFHPQNKGLIDGAESYVSFSRYSDAVSLPQDPGVICGAVFGCIFGALVIVTVGGFIFWRKKRKDAKNNEVSFSQIKPKKSKLIRVENFEAYFKKQQADSNCGFAEEYEDLKLVGISQPKYAAELAENRGKNRYNNVLPYDISRVKLSVQTHSTDDYINANYMPGYHSKKDFIATQGPLPNTLKDFWRMVWEKNVYAIIMLTKCVEQGRTKCEEYWPSKQAQDYGDITVAMTSEIVLPEWTIRDFTVKNIQTSESHPLRQFHFTSWPDHGVPDTTDLLINFRYLVRDYMKQSPPESPILVHCSAGVGRTGTFIAIDRLIYQIENENTVDVYGIVYDLRMHRPLMVQTEDQYVFLNQCVLDIVRSQKDSKVDLIYQNTTAMTIYENLAPVTTFGKTNGYIA
percentage of EdU-negative (MCF7; [1]): 23.2 ± 1.6%
percentage of EdU-negative (MCF7; protein concentration 0.225 µM): 22.4 ± 0.63%
percentage of EdU-negative (hTERT-HMEC; [1]): 5.56 ± 1.9%
percentage of EdU-negative (hTERT-HMEC; protein concentration 0.225 µM): 5.79 ± 0.53%

MKPALLEVMRMNRICRMVLATCLGSFILVIFYFQSMLHPVMRRNPFGVDICCRKGSRSPLQELYNPIQLELSNTAVLHQMRRDQVTDTCRANSATSRKRRVLTPNDLKHLVVDEDHELIYCYVPKVACTNWKRLMMVLTGRGKYSDPMEIPANEAHVSANLKTLNQYSIPEINHRLKSYMKFLFVREPFERLVSAYRNKFTQKYNISFHKRYGTKIIKRQRKNATQEALRKGDDVKFEEFVAYLIDPHTQREEPFNEHWQTVYSLCHPCHIHYDLVGKYETLEEDSNYVLQLAGVGSYLKFPTYAKSTRTTDEMTTEFFQNISSEHQTQLYEVYKLDFLMFNYSVPSYLKLE [Q9NPF2]
percentage of EdU-negative (MCF7; [1]): 23.2 ± 1.9%
percentage of EdU-negative (MCF7; protein concentration 0.225 µM): 24.6 ± 1.8%
percentage of EdU-negative (hTERT-HMEC; [1]): 5.07 ± 0.051%
percentage of EdU-negative (hTERT-HMEC; protein concentration 0.225 µM): 18.8 ± 3%

MKPATGLWVWVSLLVAAGTVQPSDSQSVCAGTENKLSSLSDLEQQYRALRKYYENCEVVMGNLEITSIEHNRDLSFLRSVREVTGYVLVALNQFRYLPLENLRIIRGTKLYEDRYALAIFLNYRKDGNFGLQELGLKNLTEILNGGVYVDQNKFLCYADTIHWQDIVRNPWPSNLTLVSTNGSSGCGRCHKSCTGRCWGPTENHCQTLTRTVCAEQCDGRCYGPYVSDCCHRECAGGCSGPKDTDCFACMNFNDSGACVTQCPQTFVYNPTTFQLEHNFNAKYTYGAFCVKKCPHNFVVDSSSCVRACPSSKMEVEENGIKMCKPCTDICPKACDGIGTGSLMSAQTVDSSNIDKFINCTKINGNLIFLVTGIHGDPYNAIEAIDPEKLNVFRTVREITGFLNIQSWPPNMTDFSVFSNLVTIGGRVLYSGLSLLILKQQGITSLQFQSLKEISAGNIYITDNSNLCYYHTINWTTLFSTINQRIVIRDNRKAENCTAEGMVCNHLCSSDGCWGPGPDQCLSCRRFSRGRICIESCNLYDGEFREFENGSICVECDPQCEKMEDGLLTCHGPGPDNCTKCSHFKDGPNCVEKCPDGLQGANSFIFKYADPDRECHPCHPNCTQGCNGPTSHDCIYYPWTGHSTLPQHARTPLIAAGVIGGLFILVIVGLTFAVYVRRKSIKKKRALRRFLETELVEPLTPSGTAPNQAQLRILKETELKRVKVLGSGAFGTVYKGIWVPEGETVKIPVAIKILNETTGPKANVEFMDEALIMASMDHPHLVRLLGVCLSPTIQLVTQLMPHGCLLEYVHEHKDNIGSQLLLNWCVQIAKGMMYLEERRLVHRDLAARNVLVKSPNHVKITDFGLARLLEGDEKEYNADGGKMPIKWMALECIHYRKFTHQSDVWSYGVTIWELMTFGGKPYDGIPTREIPDLLEKGERLPQPPICTIDVYMVMVKCWMIDADSRPKFKELAAEFSRMARDPQRYLVIQGDDRMKLPSPNDSKFFQNLLDEEDLEDMMDAEEYLVPQAFNIPPPIYTSRARIDSNRSEIGHSPPPAYTPMSGNQFVYRDGGFAAEQGVSVPYRAPTSTIPEAPVAQGATAEIFDDSCCNGTLRKPVAPHVQEDSSTQRYSADPTVFAPERSPRGELDEEGYMTPMRDKPKQEYLNPVEENPFVSRRKNGDLQALDNPEYHNASNGPPKAEDEYVNEPLYLNTFANTLGKAEYLKNNILSMPEKAKKAFDNPDYWNHSLPPRSTLQHPDYLQEYSTKYFYKQNGRIRPIVAENPEYLSEFSLKPGTVLPPPPYRHRNTVV
percentage of EdU-negative (MCF7; [2]): 26.2 ± 1.2%
percentage of EdU-negative (MCF7; [3]): 25.4 ± 1.2%
percentage of EdU-negative (hTERT-HMEC; [2]): 4.75 ± 0.55%
percentage of EdU-negative (hTERT-HMEC; [3]): 7.8 ± 0.72%

MKPLLVVFVFLFLWDPVLAGINSLSSEMHKKCYKNGICRLECYESEMLVAYCMFQLECCVKGNPAP [Q4QY38]
percentage of EdU-negative (MCF7; [1]): 26.33 ± 0.082%
percentage of EdU-negative (MCF7; protein concentration 0.225 µM): 27 ± 0.67%
percentage of EdU-negative (hTERT-HMEC; [1]): 4.56 ± 0.45%
percentage of EdU-negative (hTERT-HMEC; protein concentration 0.225 µM): 5.39 ± 1.7%

MKPNIIFVLSLLLILEKQAAVMGQKGGSKGRLPSEFSQFPHGQKGQHYSGQKGKQQTESKGSFSIQYTYHVDANDHDQSRKSQQYDLNALHKTTKSQRHLGGSQQLLHNKQEGRDHDKSKGHFHRVVIHHKGGKAHRGTQNPSQDQGNSPSGKGISSQYSNTEERLWVHGLSKEQTSVSGAQKGRKQGGSQSSYVLQTEELVANKQQRETKNSHQNKGHYQNVVEVREEHSSKVQTSLCPAHQDKLQHGSKDIFSTQDELLVYNKNQHQTKNLNQDQQHGRKANKISYQSSSTEERRLHYGENGVQKDVSQSSIYSQTEEKAQGKSQKQITIPSQEQEHSQKANKISYQSSSTEERRLHYGENGVQKDVSQRSIYSQTEKLVAGKSQIQAPNPKQEPWHGENAKGESGQSTNREQDLLSHEQKGRHQHGSHGGLDIVIIEQEDDSDRHLAQHLNNDRNPLFT
percentage of EdU-negative (MCF7; protein concentration 0.005 µM): 28.4 ± 1.1%
percentage of EdU-negative (MCF7; protein concentration 0.05 µM): 25.85 ± 0.061%
percentage of EdU-negative (hTERT-HMEC; protein concentration 0.005 µM): 6.42 ± 0.18%
percentage of EdU-negative (hTERT-HMEC; protein concentration 0.05 µM): 6.06 ± 1.2%

Source: the supplement of paper PMC11316812
